Experiments:
[1] = tested on: normal thyrocytes; assay: Cytokine protection of normal thyrocytes from chemotherapy-induced apoptosis; format: cell-based, human; details: 48 h pre-treatment, rhIL-4 20 ng/ml or rhIL-10 40 ng/ml, then drugs for 12 h
Protocol: Thyroid cell purification and culture. Thyroid tissues from normal, PTC, FTC and UTC were digested for 2 hours with collagenase (1.5 mg/ml) (Gibco BRL, Grand Island, N.Y.) and hyaluronidase (20 μg/ml) (Sigma Chemical Co., St. Louis, Mo.) in DMEM. Thyrocytes were purified from the digested tissues by hematopoietic cell depletion with anti-CD45-coupled beads (Dynal, Wirral Merseyside, U.K.) and 12 hours of flask adherence, which allowed removal of other cells. After additional 12 hours of culture, thyroid cells were allowed to grow in monolayer for the immunocytochemistry or detached with trypsin+EDTA following exposure to cytokines or chemotherapeutic agents for functional and protein analyses. […]
Cell death quantitation. Apoptotic events of neoplastic thyrocytes were evaluated by DNA staining and flow cytometry analysis. […] The percentage of hypodiploid nuclei was evaluated as previously described. […] The number of viable cells was detected by CellTiter Aqueous Assay Kit (Promega Corporation, WI, USA) adding 20 μl of solution reagent directly to culture wells, incubating for 1 hours at 37° C. and recording absorbance at 490 nm. […]

[2] = tested on: MDA-MB-231 breast cancer cells; assay: MTS viability of MDA-MB-231 cells: chemotherapy- and anti-CD95-induced apoptosis; format: cell-based, human
Protocol: Human LNCAP prostate cancer cell line and human MDA-MB-231 breast cancer cell line were obtained from the American Type Culture Collection (ATCC, Manassas, Va.). Human RT112 bladder carcinoma cell line was kindly provided by Dr. M. Cippitelli (Regina Elena Cancer Institute, Rome, Italy). Cells were grown in RPMI 1640 (Life Technologies Inc., Grand Island, N.Y.) containing 10% heat inactivated fetal bovine serum supplemented with L-Glutamine 2 mM and 100 units/ml Penicillin-Streptomycin. Cells were kept in 5% CO2 atmosphere and routinely passaged when 80-85% confluent. […]
Cell viability was determined using the CellTiter 96® AQueous One Solution Cell Proliferation Assay (Promega, Madison, Wis.), according to the manufacturer's instructions. The assay is based on reduction of 3-(4,5-dimethylthiazol-2-yl)-5-(3-carboxymethoxyphenyl)-2-(4-sulfophenyl)-2H-tetrazolium, inner salt (MTS) to a colored formazan product that is measured spectrophotometrically. […] After 3 hours of incubation at 37° C. with the MTS reagent, the plates were read on a Multilabel Counter (Victor2, Wallac, Perkin-Ehmer Inc., Norwalk, Conn.) and dye absorbance was measured at 490 nm.
The percentage of apoptotic cells was derived from the percentage of viable cells that was directly calculated from the values of the MTS assay.

B1: IL-4: human recombinant IL-4 (protein, UniProt P05112 25-153, looked up)
Interleukin-4: HKCDITLQEIIKTLNSLTEQKTLCTELTVTDIFAASKNTTEKETFCRAATVLRQFYSHHEKDTRCLGATAQQFHRHKQLIRFLKRLDRNLWGLAGLNSCPVKEANQSTLENFLERLKTIMREKYSKCSS
For B1, the “prevention of death of normal thyrocytes exposed to cisplatinum, doxorubicin and taxol” value [1] was “drastically prevented death”, the “anti-CD95-induced apoptosis of MDA-MB-231 cells” value ([2]; cytokine pretreatment, 30 ng/ml anti-CD95 agonistic antibody) was “greatly reduced anti-CD95-induced apoptosis” and the “drug-induced death of MDA-MB-231 cells” value ([2]; two days cytokine pretreatment (20 ng/ml), 300 ng/ml cisplatin or 5 μM daunorubicin) was “significantly protected from drug-induced death”.
